Legend:
[1] = molecular target: non-randomized ABD displayed on staphylococcal cells (not stated (streptococcal)); test: flow cytometry on cells; S. carnosus cells displaying ABD-variants incubated 1 h at RT in PBSP pH 7.4 with twelve concentrations of biotinylated TNF-α (4.3-12900 nM; streptavidin-Alexa Fluor 488) or HSA-Alexa 488 (1.25-2500 nM; 10-20000 nM for ABD_(TNF1)); MFI fitted to a 1:1 model; apparent KD for TNF-α (monomer concentration)
[2] = molecular target: ABD_(TNF2) displayed on staphylococcal cells; test: as above
[3] = molecular target: human serum albumin (human) (UniProt P02768); test: SPR; BIAcore 2000; HSA immobilized (2000 RU); ABD-variants injected in duplicates at about 1-3000 nM (up to 250 nM for ABD); 25°C, HBS-EP
[4] = molecular target: ABD_(T001); test: SPR; ProteOn XPR36; ABD-molecules immobilized by amine coupling on GLM or GLC chips (about 800-1500 RU); HSA (7-1200 nM) or TNF-α (1-100 nM) injected, 50 µl/min, 25°C, PBS with 0.1% Tween 20; at least triplicates, two chips, two days; apparent KD for TNF-α (monomer concentration)
[5] = molecular target: ABD_(HT016); test: as above
[6] = molecular target: ABD_(T002); test: as above
[7] = molecular target: ABD_(TNF1) displayed on staphylococcal cells; test: flow cytometry on cells; S. carnosus cells displaying ABD-variants incubated 1 h at RT in PBSP pH 7.4 with twelve concentrations of biotinylated TNF-α (4.3-12900 nM; streptavidin-Alexa Fluor 488) or HSA-Alexa 488 (1.25-2500 nM; 10-20000 nM for ABD_(TNF1)); MFI fitted to a 1:1 model; apparent KD for TNF-α (monomer concentration)
[8] = molecular target: ABD_(HT015); test: SPR; ProteOn XPR36; ABD-molecules immobilized by amine coupling on GLM or GLC chips (about 800-1500 RU); HSA (7-1200 nM) or TNF-α (1-100 nM) injected, 50 µl/min, 25°C, PBS with 0.1% Tween 20; at least triplicates, two chips, two days; apparent KD for TNF-α (monomer concentration)
[9] = molecular target: ABD_(T004); test: as above

Sequence of biotinylated TNF-α (P01375 77-233): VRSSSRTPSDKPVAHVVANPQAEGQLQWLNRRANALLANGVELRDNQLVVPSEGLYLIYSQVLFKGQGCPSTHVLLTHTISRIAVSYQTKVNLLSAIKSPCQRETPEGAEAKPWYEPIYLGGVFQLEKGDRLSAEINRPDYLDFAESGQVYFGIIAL

Row | Kd [2] [nM] | Kd [4] [nM] | Kd [5] [nM] | Kd [6] [nM] | also measured | Substance
1 | 23 | – | – | – | Kd [1]: 19 nM | HSA conjugated to Alexa Fluor 488 (from UniProt P02768 25-609) (natural protein)
2 | – | – | – | – | Kd [3]: 5.3 nM; koff [3]: 0.0009 s⁻¹; kon [3]: 170000 M⁻¹ s⁻¹ | non-randomized ABD (alkali-stabilized albumin-binding domain from streptococcal protein G) (domain or fragment)
3 | – | 5.2 | 4.5 | 2.9 | – | tumor necrosis factor-α (from UniProt P01375 77-233) (ligand)
4 | 594 | – | – | – | Kd [7]: 267 nM | biotinylated TNF-α (from UniProt P01375 77-233) (ligand)
5 | – | 192 | 68 | 649 | Kd [8]: 35 nM; Kd [9]: 209 nM | human serum albumin (from UniProt P02768 25-609) (natural protein)

— PMC3185003
